# In PMC5792912:
# What was measured:
# Format in all cases: in vitro ADME
# [1] = substrate: O=c1cc(-c2ccccc2)c2ccc(O)c(O)c2o1; assay: Methylation kinetics in pooled human liver cytosol (HLC); conditions: other: HLC 0.5 mg/ml, substrate 0.1–40 µM, 5 min; best-fit value ± s.e.; pH 7.4
# Experimental: (§1) Reaction mixtures were pre-incubated at 37°C for 5 min and initiated by the addition of SAM to a final concentration of 0.4 mM. The samples were incubated for a certain period of time and the reaction was terminated by the addition of 200 µl ice-cold acetonitrile and then centrifuged at 20 000g, 4°C, for 20 min. Control incubations were performed either without human liver cytosol, or without SAM or without substrate. The supernatants were subjected to ultra-fast liquid chromatography (UFLC) coupled with a diode array detector (DAD) and an electrospray ionization (ESI) mass spectrometer (MS) analyzer.
# (§2) 7,8-DHCs and their methylated conjugates were analysed by a UFLC spectrometry system (Shimadzu, Kyoto, Japan), equipped with two LC-20AD pumps, a DGU-20A3 vacuum degasser, a SIL-20ACHT auto-sampler, a CTO-20AC column oven, an SPD-M 20A DAD, a CBM-20A communications bus module, a mass detector (2010EV) with an ESI interface and a computer equipped with UFLC-MS SOLUTION v. 3.41 software. A Shimadzu ODS (75.0 × 2.0 mm, 3 µm) analytical column was used to separate 7,8-DHCs and their methylated conjugates. Column temperature was kept at 40°C. […] The methylation samples were stable over 72 h at 4°C. 7,8-DHC methylation was quantified by the standard curves of the methylated conjugates at the detector wavelength of 325 nm, which were linear from 0.01 to 10 µM (the correlation coefficient was 0.999).
# (§3) For estimating kinetic parameters, 7,8-DHCs (0.1–40 µM) were incubated with pooled HLC and S-COMT. 7,8-DHCs (0.1–40 µM) were incubated with HLC or S-COMT for 5 min, using a microsomal protein concentration of 0.5 mg ml^−1 or 0.002 mg ml^−1 for HLC and S-COMT, respectively. Kinetic constants for 7,8-DHCs methylation by HLC and S-COMT were obtained by fitting the Michaelis–Menten kinetics equation (3.1) to experimental data.
# (§4) For the Michaelis–Menten kinetic model, 3.1 v=Vmax×[S]/Km+[S], where v is the rate of reaction, [S] is the substrate concentration, Vmax is the maximum velocity estimate and Km is the apparent affinity constant.
# (§5) All incubations were performed in duplicate. Kinetic constants were obtained using GraphPad PRISM 6 (GraphPad Software, Inc. La Jolla, CA) software.
# [2] = substrate: Cc1cc(=O)oc2c(O)c(O)ccc12; assay: as above; conditions: other: HLC 0.5 mg/ml, substrate 0.1–40 µM, 5 min; best-fit value ± s.e.; pH 7.4
# Experimental: as §1, §2, §3, §4, §5
# [3] = substrate: O=c1ccc2ccc(O)c(O)c2o1; assay: as above; conditions: other: HLC 0.5 mg/ml, substrate 0.1–40 µM, 5 min; best-fit value ± s.e.; pH 7.4
# Experimental: as §1, §2, §3, §4, §5
# [4] = substrate: O=C(O)Cc1cc(=O)oc2c(O)c(O)ccc12; assay: as above; conditions: other: HLC 0.5 mg/ml, substrate 0.1–40 µM, 5 min; best-fit value ± s.e.; pH 7.4
# Experimental: as §1, §2, §3, §4, §5
# [5] = substrate: O=c1cc(-c2ccccc2)c2ccc(O)c(O)c2o1; assay: Methylation kinetics with recombinant human soluble COMT; conditions: other: S-COMT 0.002 mg/ml, substrate 0.1–40 µM, 5 min; best-fit value ± s.e.; pH 7.4
# Experimental: as §1, §2, §3, §4, §5
# [6] = substrate: Cc1cc(=O)oc2c(O)c(O)ccc12; assay: as above; conditions: other: S-COMT 0.002 mg/ml, substrate 0.1–40 µM, 5 min; best-fit value ± s.e.; pH 7.4
# Experimental: as §1, §2, §3, §4, §5
# [7] = substrate: O=c1ccc2ccc(O)c(O)c2o1; assay: as above; conditions: other: S-COMT 0.002 mg/ml, substrate 0.1–40 µM, 5 min; best-fit value ± s.e.; pH 7.4
# Experimental: as §1, §2, §3, §4, §5
# [8] = substrate: O=C(O)Cc1cc(=O)oc2c(O)c(O)ccc12; assay: as above; conditions: other: S-COMT 0.002 mg/ml, substrate 0.1–40 µM, 5 min; best-fit value ± s.e.; pH 7.4
# Experimental: as §1, §2, §3, §4, §5
Protein,Km [1] [µM],Km [2] [µM],Km [3] [µM],Km [4] [µM],Km [5] [µM],Km [6] [µM],Km [7] [µM],Km [8] [µM]
"COMT in HLC (Homo sapiens) (protein, Pooled human liver cytosol (HLC) from seven male donors; tissue Research Institute for Liver Diseases (Shanghai, China) Lot; QROX; host or cells: pooled human liver cytosol, seven male donors) MGDTKEQRILNHVLQHAEPGNAQSVLEAIDTYCEQKEWAMNVGDKKGKIVDAVIQEHQPSVLLELGAYCGYSAVRMARLLSPGARLITIEINPDCAAITQRMVDFAGVKDKVTLVVGASQDIIPQLKKKYDVDTLDMVFLDHWKDRYLPDTLLLEECGLLRKGTVLLADNVICPGAPDFLAHVRGSSCFECTHYQSFLEYREVVDGLEKAIYKGPGSEAGP",0.089 ± 0.015,0.20 ± 0.029,0.21 ± 0.036,7.52 ± 0.64,–,–,–,–
"recombinant human soluble COMT (S-COMT) (Homo sapiens) (protein, made in house) MGDTKEQRILNHVLQHAEPGNAQSVLEAIDTYCEQKEWAMNVGDKKGKIVDAVIQEHQPSVLLELGAYCGYSAVRMARLLSPGARLITIEINPDCAAITQRMVDFAGVKDKVTLVVGASQDIIPQLKKKYDVDTLDMVFLDHWKDRYLPDTLLLEECGLLRKGTVLLADNVICPGAPDFLAHVRGSSCFECTHYQSFLEYREVVDGLEKAIYKGPGSEAGP",–,–,–,–,0.22 ± 0.034,1.07 ± 0.10,0.48 ± 0.071,7.93 ± 1.31
